According to paper PMC11387697, “Defining the functional properties of cyclopropane fatty acid synthase from Pseudomonas aeruginosa PAO1” (The Journal of Biological Chemistry, 2024):

Experiments:
[1] = target: the molecule itself; experiment: native MS; native ion mobility MS; 5 uM enzyme buffer exchanged into 200 mM ammonium acetate, pH 7.5; nanoESI under gentle conditions (Waters Synapt G2-Si); collision-induced unfolding of the 20+ dimer ion at 4 to 110 V
purified protein = substrate: C[S+](CC[C@H](N)C(=O)O)C[C@H]1O[C@@H](n2cnc3c(N)ncnc32)[C@H](O)[C@@H]1O; experiment: purified protein; settings: 60:40 PE 18:1/18:1:DPPG 100 nm unilamellar liposomes 1 mg/ml, HEPES pH 7.5, 37 °C

| Protein | stoichiometry N [1] | Km (purified protein) [µM] | kcat (purified protein) [s⁻¹] |
| --- | --- | --- | --- |
| Pseudomonas aeruginosa PAO1 cyclopropane fatty acid synthase (PA-CFAS) (enzyme, UniProt Q9HT28 1-394, looked up, Cyclopropane fatty acid synthase, gene PA5546, P. aeruginosa PAO1, amplified from the PAO1 genome and cloned into pET16b; monomer with His6 tag MWcalc = MWobs = 46,486 Da; The native-MS dimer mass (92,972 Da) is twice the tagged monomer mass, so the tag was present in the assay; also called PA5546; Pseudomonas CFAS enzyme) MIAQLPSELLSLQLPLRIRIGDAQAFDLGPDPQVTMVIRDPSLLTEITHPSLDALGKAYVEKRLDIEGPISQVIGIGDALSEALGEPDGGAPPVRESHDKDTDAEAIHYHYDLSNDFYQLWLDPEMVYSCAYFETGKEDLATAQLAKLRHLCRKLRLQPGEKLLDVGCGWGGLARLAAREFGVEVTGITLSKEQLALGRERVKAEGLEDRVTLKLLDYRDLPRDGRFDKVVSVGMFEHVGHANLGLYFQQLYEAVRPGGLVMNHGITSRYTDGRPVGKGAGDFIDRYVFPHGELPHLSLAVARMSEAGLEVVDVESLRLHYARTLDFWSANLEARLKEAARLVPEETLRIWRLYLAGCAYGFKRGWINLHQILAIRPHEDGSHELPWSRRDLYA | 2 | – | – |
| EC-CFAS (Escherichia coli K-12) (protein) SSSCIEEVSVPDDNWYRIANELLSRAGIAINGSAPADIRVKNPDFFKRVLQEGSLGLGESYMDGWWECDRLDMFFSKVLRAGLENQLPHHFKDTLRIAGARLFNLQSKKRAWIVGKEHYDLGNDLFSRMLDPFMQYSCAYWKDADNLESAQQAKLKMICEKLQLKPGMRVLDIGCGWGGLAHYMASNYDVSVVGVTISAEQQKMAQERCEGLDVTILLQDYRDLNDQFDRIVSVGMFEHVGPKNYDTYFAVVDRNLKPEGIFLLHTIGSKKTDLNVDPWINKYIFPNGCLPSVRQIAQSSEPHFVMEDWHNFGADYDTTLMAWYERFLAAWPEIADNYSERFKRMFTYYLNACAGAFRARDIQLWQVVFSRGVENGLRVAR | – | 68 | 0.217 |
